Assay results reported in US20240124590A1 (ULTRAHUMAN EIGHT, published 2024).

Tests used:
[1] = target: T1, human PD1 protein (construct not stated) (human, UniProt Q15116 25-170, limits assumed); experiment: direct ELISA
T1 construct: Coated protein of the off-target ELISA; whole entry named

[2] = target: T2, cyno PD1 protein (construct not stated) (cynomolgus monkey, UniProt Q15116 25-170 (human entry), limits assumed); experiment: direct ELISA
T2 construct: may be two constructs; also called cyno PD1 in the Alphascreen screen
T2 chain: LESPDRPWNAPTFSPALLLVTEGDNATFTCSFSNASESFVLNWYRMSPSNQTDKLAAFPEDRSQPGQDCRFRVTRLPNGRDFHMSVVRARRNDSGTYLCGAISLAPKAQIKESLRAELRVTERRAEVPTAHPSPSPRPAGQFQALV

[3] = target: T3, recombinant ectodomain of human VEGFR2 (human, UniProt P35968 20-764); experiment: direct ELISA
T3 construct: whole entry named

[4] = target: T4, recombinant ectodomain of rhesus VEGFR2 (rhesus); experiment: direct ELISA
T4 construct: whole entry named
T4 chain: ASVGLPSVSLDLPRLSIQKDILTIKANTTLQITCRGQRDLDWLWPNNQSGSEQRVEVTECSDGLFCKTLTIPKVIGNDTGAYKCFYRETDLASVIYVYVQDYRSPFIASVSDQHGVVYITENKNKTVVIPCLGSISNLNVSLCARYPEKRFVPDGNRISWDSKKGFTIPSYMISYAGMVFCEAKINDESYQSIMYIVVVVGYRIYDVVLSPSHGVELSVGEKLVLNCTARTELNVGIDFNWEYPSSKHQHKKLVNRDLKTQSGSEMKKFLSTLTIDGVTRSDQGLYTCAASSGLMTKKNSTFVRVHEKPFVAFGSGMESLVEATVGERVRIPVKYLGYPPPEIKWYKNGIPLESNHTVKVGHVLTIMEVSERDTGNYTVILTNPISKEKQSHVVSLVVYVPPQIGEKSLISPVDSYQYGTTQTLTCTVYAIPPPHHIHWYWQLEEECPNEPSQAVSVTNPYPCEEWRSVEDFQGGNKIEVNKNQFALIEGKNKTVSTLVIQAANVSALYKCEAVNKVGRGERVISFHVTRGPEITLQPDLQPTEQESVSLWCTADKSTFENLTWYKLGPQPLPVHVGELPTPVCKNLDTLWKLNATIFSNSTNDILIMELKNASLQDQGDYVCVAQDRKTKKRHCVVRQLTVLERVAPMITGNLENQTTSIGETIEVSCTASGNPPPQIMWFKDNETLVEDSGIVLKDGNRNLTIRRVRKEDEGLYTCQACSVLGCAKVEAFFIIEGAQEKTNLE

[5] = target: T5, human PD1 expressed on cells (human, UniProt Q15116 25-288); experiment: cell microarray re-array, transfected HEK293
T5 construct: also called human PD1+ CHO cells; PD1-transfected HEK293 cells
T5 sequence (Q15116 25-288 limits assumed): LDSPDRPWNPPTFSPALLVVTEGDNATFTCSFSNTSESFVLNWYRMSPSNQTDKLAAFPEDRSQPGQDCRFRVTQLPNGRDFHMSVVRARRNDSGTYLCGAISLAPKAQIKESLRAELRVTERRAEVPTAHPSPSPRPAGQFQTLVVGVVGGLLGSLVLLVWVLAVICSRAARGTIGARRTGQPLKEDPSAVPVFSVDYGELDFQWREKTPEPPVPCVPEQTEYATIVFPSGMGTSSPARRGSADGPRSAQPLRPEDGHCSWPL
Experimental: (§1) Antibody binding was detected using AF647 fluorescent secondary anti-human IgG1 antibody. Primary hits (duplicate spots) were identified by analysing fluorescence (AF647 and ZsGreen1) on ImageQuant. Vectors encoding all hits were sequenced to confirm their correct identities. […] Slides were analysed as above. Flow cytometry confirmation screen: Expression vectors encoding ZsGreen1 only, or ZsGreen1 and PD1, FZDS, KDR or ULBP2, were transfected into human HEK293 cells. Each live transfectant was incubated with […] of each of the test antibodies and the Isotype control antibody. Cells were washed, and incubated with the same AF647 anti-human IgG Fc detection antibody as used in the cell microarray screens. Cells were again washed, and analysed by flow cytometry using an Accuri flow cytometer (BD). A 7AAD live/dead dye was used to exclude dead cells, and ZsGreen1-positive cells (i.e. transfected cells) were selected for analyses.

[6] = target: T6, human FZD5 (frizzled class receptor 5) on transfected HEK293 cells (human, UniProt Q13467 27-585); experiment: cell microarray re-array, transfected HEK293
T6 construct: also called FZDS; FZ5
T6 sequence (Q13467 27-585 limits assumed): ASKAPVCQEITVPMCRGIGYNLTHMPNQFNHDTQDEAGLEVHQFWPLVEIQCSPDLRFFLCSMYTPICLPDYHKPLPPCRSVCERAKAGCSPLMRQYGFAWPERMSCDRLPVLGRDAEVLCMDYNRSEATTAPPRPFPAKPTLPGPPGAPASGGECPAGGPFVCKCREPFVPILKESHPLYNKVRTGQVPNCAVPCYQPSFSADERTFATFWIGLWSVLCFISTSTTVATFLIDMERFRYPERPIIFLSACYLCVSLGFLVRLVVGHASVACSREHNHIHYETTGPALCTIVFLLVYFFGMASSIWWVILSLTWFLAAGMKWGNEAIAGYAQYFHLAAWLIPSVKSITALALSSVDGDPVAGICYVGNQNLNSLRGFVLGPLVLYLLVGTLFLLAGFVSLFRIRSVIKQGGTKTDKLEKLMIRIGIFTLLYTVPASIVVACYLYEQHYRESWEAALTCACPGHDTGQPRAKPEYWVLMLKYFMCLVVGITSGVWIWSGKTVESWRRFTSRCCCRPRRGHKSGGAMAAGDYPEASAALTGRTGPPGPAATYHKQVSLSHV
Experimental: as §1

[7] = target: T7, human ULBP2 (UL16 binding protein 2) on transfected HEK293 cells (human, UniProt Q9BZM5 26-217); experiment: cell microarray re-array, transfected HEK293
T7 sequence: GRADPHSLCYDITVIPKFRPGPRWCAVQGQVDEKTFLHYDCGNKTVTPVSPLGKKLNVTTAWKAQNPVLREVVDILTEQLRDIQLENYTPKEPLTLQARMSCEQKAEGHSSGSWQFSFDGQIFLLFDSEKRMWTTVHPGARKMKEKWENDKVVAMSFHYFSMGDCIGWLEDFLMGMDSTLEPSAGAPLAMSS
Experimental: as §1

[8] = target: T8, human KDR (VEGFR2) on cells (human, UniProt P35968 20-1356); experiment: cell microarray re-array, transfected HEK293
T8 construct: Transfected HEK293 cells (arrays, flow cytometry) and human VEGFR2 reporter cells
Experimental: as §1

[9] = target: T9, human monomeric VEGFR2-his protein (human, UniProt P35968 20-764); experiment: SPR (Biacore), IgG captured, VEGFR2-his analyte
T9 construct: Soluble analyte; whole entry named; also called human VEGFR2-his; not shown: his tag
Experimental: (§2) Affinity (KD) of purified IgGs was determined via SPR with antigen in-solution on a Biacore 3000 (GE). A mouse anti-human antibody (CH1 specific) was immobilized on a CM5 Sensor Chip to a level of 2000 RU in acetate buffer at pH 4.5 using amine coupling following the Wizard instructions for two channels. One channel was used for background signal correction. The standard running buffer HBS-EP pH 7.4 was used. Regeneration was performed with a single injection of 10 μl of 10 mM Glycine at pH 1.5 at 20 μl/minute. IgG samples were injected for 2 minutes at 50 nM at 30 μl/min followed by and off-rate of 60 seconds. […] The obtained sensorgrams were analysed using the Biacore 3000 evaluation (BIAevaluation) software. The KD was calculated by simultaneous fitting of the association and dissociation phases to a 1:1 Langmuir binding model.

[10] = target: T10, rhesus monomeric VEGFR2-his protein (rhesus); experiment: SPR (Biacore), IgG captured, VEGFR2-his analyte
T10 construct: Soluble analyte; whole entry named; also called rhesus VEGFR2-his; not shown: his tag
T10 chain: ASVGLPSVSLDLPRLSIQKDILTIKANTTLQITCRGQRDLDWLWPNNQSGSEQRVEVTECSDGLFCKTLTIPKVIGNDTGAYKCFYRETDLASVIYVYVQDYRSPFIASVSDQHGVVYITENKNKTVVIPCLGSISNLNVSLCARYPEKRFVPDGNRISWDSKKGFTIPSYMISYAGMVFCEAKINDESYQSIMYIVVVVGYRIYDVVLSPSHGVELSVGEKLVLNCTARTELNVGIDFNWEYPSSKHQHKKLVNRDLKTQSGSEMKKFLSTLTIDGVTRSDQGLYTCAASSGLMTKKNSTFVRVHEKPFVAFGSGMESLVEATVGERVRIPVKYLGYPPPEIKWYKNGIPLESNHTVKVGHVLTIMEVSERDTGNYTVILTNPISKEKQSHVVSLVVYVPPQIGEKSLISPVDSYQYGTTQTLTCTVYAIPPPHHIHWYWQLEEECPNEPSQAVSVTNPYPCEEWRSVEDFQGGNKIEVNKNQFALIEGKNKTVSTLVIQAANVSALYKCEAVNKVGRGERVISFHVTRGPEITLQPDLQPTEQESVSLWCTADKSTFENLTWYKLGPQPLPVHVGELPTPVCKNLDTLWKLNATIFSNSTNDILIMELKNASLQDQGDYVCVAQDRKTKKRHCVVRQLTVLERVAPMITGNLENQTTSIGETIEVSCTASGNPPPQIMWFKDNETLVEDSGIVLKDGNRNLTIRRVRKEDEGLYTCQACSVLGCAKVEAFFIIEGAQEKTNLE
Experimental: as §2

Measured: binding result

T1 sequence (Q15116 25-170 limits assumed): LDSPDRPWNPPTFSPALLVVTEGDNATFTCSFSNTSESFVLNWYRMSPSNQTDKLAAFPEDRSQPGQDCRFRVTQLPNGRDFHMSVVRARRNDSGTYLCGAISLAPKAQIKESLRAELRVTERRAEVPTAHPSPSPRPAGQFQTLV

B1: mVH/mVL Mab005-IgG1 (antibody, V domains shown)
VH: EVMLVESGGGLVKPGGSLKLSCAASGFTFSSYMMSWVRQTPEKRLEWVATISGGGANTYYPDSVKGRFTISRDNAKNTLYLQMSSLRSEDTALYYCARQLYYFDYWGQGTTLTVSS
VL: DIQMTQSPASQSASLGEGVTITCLASQTIGTWLTWYQQKPGKSPQLLIYTATSLADGVPSRFSGSGSGTKFSFKISSLQAEDFVTYYCQQVYSIPWTFGGGTKLEIK
notes: Murine PD1-mVH/PD1-mVL on human IgG1null + Ckappa; also called original murine hybridoma v-domains
binds: all assays above
